The values below come from IntAct's records for PubMed 16888620.

For the experiment, the target named is sgk3_human SGK3 (UniProt Q96BR1).
sgk3_human SGK3, sequence (Q96BR1 whole entry): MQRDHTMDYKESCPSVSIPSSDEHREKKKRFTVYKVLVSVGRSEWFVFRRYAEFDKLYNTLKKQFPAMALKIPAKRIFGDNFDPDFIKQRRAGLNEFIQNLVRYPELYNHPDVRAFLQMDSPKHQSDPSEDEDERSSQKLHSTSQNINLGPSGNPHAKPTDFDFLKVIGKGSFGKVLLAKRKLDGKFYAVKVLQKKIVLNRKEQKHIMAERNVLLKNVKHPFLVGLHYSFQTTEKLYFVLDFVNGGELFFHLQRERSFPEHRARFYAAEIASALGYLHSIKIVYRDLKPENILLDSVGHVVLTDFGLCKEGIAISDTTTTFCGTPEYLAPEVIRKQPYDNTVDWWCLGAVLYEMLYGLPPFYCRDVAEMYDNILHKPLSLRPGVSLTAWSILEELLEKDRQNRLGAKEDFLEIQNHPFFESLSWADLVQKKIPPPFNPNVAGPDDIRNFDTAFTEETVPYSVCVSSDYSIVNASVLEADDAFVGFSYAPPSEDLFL

As for “E3 ubiquitin-protein ligase Itchy homolog (Homo sapiens), Q96J02 T385A”, the “effect of a mutation on the interaction” value was “decreasing interaction strength”.

For “E3 ubiquitin-protein ligase Itchy homolog (Homo sapiens), Q96J02 S450A”, the “effect of a mutation on the interaction” value was “disrupting interaction strength”.
